{
  "source": "patent US20080194611",
  "biological_target": "S1P3 receptor (UniProt Q99500)",
  "sequence (Q99500 whole entry)": "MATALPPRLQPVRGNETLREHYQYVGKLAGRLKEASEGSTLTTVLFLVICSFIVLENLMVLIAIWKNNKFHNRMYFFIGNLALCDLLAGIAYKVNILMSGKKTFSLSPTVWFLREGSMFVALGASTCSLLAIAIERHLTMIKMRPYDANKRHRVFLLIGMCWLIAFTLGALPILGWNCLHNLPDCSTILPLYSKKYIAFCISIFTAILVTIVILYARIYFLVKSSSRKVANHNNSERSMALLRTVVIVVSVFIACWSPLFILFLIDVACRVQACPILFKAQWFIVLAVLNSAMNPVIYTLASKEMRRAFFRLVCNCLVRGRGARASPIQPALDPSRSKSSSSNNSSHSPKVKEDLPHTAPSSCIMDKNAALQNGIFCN",
  "data": [
    {"substance": "recombinant active Src", "values": [
      {"measurement": "in vitro tyrosine phosphorylation of isolated S1P3 receptor (immunoblot)", "value": "Src tyrosine phosphorylation of the S1P3 receptor"}
    ]}
  ]
}
